{"source": "patent US7968692B2", "about": "“Elongase genes and uses thereof” (Abbott Laboratories, priority 1998, dated 2011)", "type_in_all_cases": "cell-based, Saccharomyces cerevisiae", "key": {"S. cerevisiae 334 [1]": {"tested_on": "S. cerevisiae 334", "assay": "Expression of M. alpina elongase (MAELO) cDNA in baker's yeast, GC-FAME analysis of lipid fraction", "details": "substrate GLA; 40-48 hours at 25° C.", "text": "The constructs pRAE-5, and pRAE-6 were transformed into S. cerevisiae 334 (Hoveland et al., Gene 83:57-64 (1989)) and screened for elongase activity. The plasmid pCGN7875 (Calgene LLC, Davis, Calif.) containing jojoba KCS gene in pYES2 vector (Invitrogen Corp., Carlsbad, Calif.) was used as a positive control. The substrate used to detect elongase activity in M. alpina elongase (MAELO) was GLA and that in jojoba KCS was oleic acid (OA). The negative control strain was S. cerevisiae 334 containing pYX242 vector. The cultures were grown for 40-48 hours at 25° C., in selective media (Ausubel et al., Short Protocols in Molecular Biology, Ch. 13, p. 3-5 (1992)), in the presence of a particular substrate. The expression of the jojoba KCS gene cloned in pYES2 was under the control of GAL1 promoter, while the promoter in pYX242 is TP1, which is constitutive. […] The GC-FAME analysis of the lipid fraction of each cell pellet was performed as previously described (Knutzon et al., supra).\nThe jojoba KCS elongates long chain monounsaturated fatty acids 18:1n-9 to 20:1n-9. […] The activity of the M. alpina elongase, elongation (MAELO) of long chain monounsaturated and saturated fatty acids, is seen in the conversion of 18:1n-9 to 20:1n-9 and also in the synthesis of 24:0. The control strain, 334(pYX242) has very little or no detectable amount of 20:1 and 24:0 (see FIG. 10A). […]"}, "S. cerevisiae 334 [2]": {"tested_on": "S. cerevisiae 334", "assay": "MAELO co-expressed with Δ5-desaturase (pCGR-4) in yeast, AA production", "details": "25 μM GLA; pRAE-5 and pCGR-4 co-transformed; FIG. 11", "description": "Once 20:3n-6 is generated by the M. alpina elongase (MAELO), the Δ5-desaturase can convert it to AA in the desired expression system. To test this hypothesis, the constructs pRAE-5 and pCGR-4 (a Δ5-desaturase containing plasmid) were co-transformed into S. cerevisiae 334 and screened for AA production. The substrate used was 25 μM GLA (18:3n-6). If the M. alpina elongase (MAELO) is active in yeast, then the substrate will be converted to DGLA(20:3n-6), which the Δ5-desaturase will convert to AA(20:4n-6)."}, "S. cerevisiae 334 [3]": {"tested_on": "S. cerevisiae 334", "assay": "Comparison of MAELO and S. cerevisiae ELO2 PUFA elongase activity in baker's yeast", "details": "25 μM GLA", "text": "The ELO2 gene encoding for the yeast elongase was cloned from an S. cerevisiae genomic library (Origene, Rockville, Md.) using the primers RO514 (SEQ ID NO: 94) (5′-GGCTATGGATCCATGAATTCACTCGTTACTCAATATG-3′) and RO515 (SEQ ID NO: 95)(5′-CCTGCCAAGCTTTTACCTTTTTCTTCTGTGTTGAG-3′) incorporating the restriction sites (underlined) BamHI and HindIII (respectively). The ELO2 gene was cloned into the vector pYX242 at the BamHI and HindIII sites, designated pRELO, transformed into the S. cerevisiae host 334 (Hoveland et al., supra) and screened for PUFA elongase activity. The vector plasmid was used as a negative control and 334(pRAE-5) was grown to compare the PUFA elongase activity. The cultures were grown as previously described with no galactose in the media and 25 μM GLA added as a substrate. […] Additionally, when DGLA produced is expressed as a percent of the total lipids (shown in parenthesis, FIG. 12), the clones 334(pRELO-1) and 334 (pRELO-2) produced 0.153% and 0.2% DGLA respectively, while 334(pYX242) produced 0.185% DGLA. […] The M. alpina PUFA elongase activity is specific for this conversion as evidenced by the higher amount of DGLA produced compared to the control, 334(pYX242)."}, "SC334": {"tested_on": "SC334", "assay": "MAD (M. alpina direct) cDNA expression library screening in yeast, GLA to DGLA", "description": "To screen the library, the glycerol stocks were thawed and approximately 0.5 ml was added to 5 ml of liquid selective media lacking uracil (Ausubel et al., supra) and grown at 30° C. for 24 hours. The culture was then transferred into 50 ml of liquid selective medium lacking uracil with 2% galactose and 25 (D)M GLA (substrate for the elongase enzyme) for 24 hours at 25° C. with shaking. The GC-FAME analysis of the lipid content in the cell pellet of each induced culture was performed as previously described (Knutzon et al., supra). The MAELO (pRAE-5 in pYX242 grown in selective media lacking leucine) was used as a positive control in each batch run. MAELO had consistently been able to convert 1.5% of GLA to DGLA (see Example III).\nAfter screening and analyzing approximately 750 individual pools by GC-FAME analysis, as described in Example VIII, one pool of five colonies (i.e., MAD708) appeared to have significant enzymatic activity in converting GLA to DGLA. […] This pool was tested again under identical assay conditions to confirm the initial findings. […] Since MAD708 was a pool of five different clones, it was necessary to isolate the individual cDNA clone which encoded for elongase activity from this pool. To do this, the original MAD708 glycerol stock was plated onto a selective media agar plate lacking uracil (Ausubel et al., supra). […]"}}, "data": [{"molecule": "MAELO: Mortierella alpina elongase encoded by MAELO cDNA (SEQ ID NO:1), expressed in S. cerevisiae 334 from pRAE-5 (protein, listed as Mortierella alpina) MAAAILDKVNFGIDQPFGIKLDTYFAQAYELVTGKSIDSFVFQEGVTPLSTQREVAMWTITYFVVIFGGRQIMKSQDAFKLKPLFILHNFLLTIASGSLLLLFIENLVPILARNGLFYAICDDGAWTQRLELLYYLNYLVKYWELADTVFLVLKKKPLEFLHYFHHSMTMVLCFVQLGGYTSVSWVPITLNLTVHVFMYYYYMRSAAGVRIWWKQYLTTLQIVQFVLDLGFIYFCAYTYFAFTYFPWAPNVGKCAGTEGAALFGCGLLSSYLLLFINFYRITYNAKAKAAKERGSNFTPKTVKSGGSPKKPSKSKHI", "values": [{"measurement": "percentage of 20:3n-6 in total lipid", "setting": "S. cerevisiae 334 [1]", "result": 0.324, "unit": "%"}, {"measurement": "total amount of 20:3n-6 produced", "setting": "S. cerevisiae 334 [1]", "result": 2.504, "unit": "µg"}, {"measurement": "AA production", "setting": "S. cerevisiae 334 [2]", "result": "confirm the production of AA"}, {"measurement": "increase of percent DGLA over 334(pYX242) (negative control)", "setting": "S. cerevisiae 334 [3]", "result": 50.8, "unit": "%"}, {"measurement": "DGLA produced as a percent of the total lipids", "setting": "S. cerevisiae 334 [3]; FIG. 12", "result": 0.279, "unit": "%"}, {"measurement": "amount of 20:3n-6 or DGLA produced relative to negative control pYX242", "setting": "S. cerevisiae 334 [3]; FIG. 12", "result": "approximately 4 times"}, {"measurement": "conversion of GLA to DGLA", "setting": "SC334; individual clones of MAD708 pool, FIG. 20", "result": 3.4, "unit": "%"}, {"measurement": "conversion of GLA to DGLA", "setting": "SC334; positive control in each batch run of library screening", "result": 1.5, "unit": "%"}]}]}
